From patent US20180355059A1 (PHARMAEXPLORER, published 2018)

Assays:
[1] = target: T1, recombinant human PCSK9 protein, His-tagged (Immunogen A, hPCSK9-His) (human, UniProt Q8NBP7 31-692, limits assumed, biotin-labelled in the ELISA and blocking assays (Biotin labeling kit)); assay: ELISA, biotin-hPCSK9-His on streptavidin plate; antibody 6.67 nM
T1 construct: also called human PCSK9-His; recombinant hPCSK9-His; not shown: His tag

[2] = target: T1, recombinant human PCSK9 protein, …; assay: ELISA, biotin-hPCSK9-His on streptavidin plate; antibody 0.067 nM
Protocol: (§1) The next day, the plates were washed twice with wash buffer [0.01% (v/v) Tween 20], then blocked with blocking buffer [0.01% (v/v) 0.1% BSA (w/w) Tween 20] at room temperature for 2 hours. […] Unbound PCSK9 proteins were removed by washing the plate three times with wash buffer [0.01% (v/v) Tween 20]. […] The plates were washed twice with wash buffer [0.01% (v/v) Tween 20], and 200 uL HRP-conjugated secondary antibody (Sigma) was added to each well and incubated for 2 hours at 37° C. After the plates were washed three times with wash buffer, 100 ul TMB substrate were added to each well and incubated for 30 minutes at room temperature. 100 ul stop solution (0.1N HCl) were added to each well to stop the reaction.

[3] = target: T2, recombinant cyno monkey PCSK9 protein (cyno monkey, UniProt A8T666 31-692 (rhesus entry), limits assumed, biotin-labelled in the ELISA (Biotin labeling kit)); assay: ELISA, biotin-cyno PCSK9 on streptavidin plate; antibody 0.67 nM
T2 construct: also called cyno PCSK9; Cyno Monkey PCSK9-His
T2 sequence (A8T666 31-692 limits assumed): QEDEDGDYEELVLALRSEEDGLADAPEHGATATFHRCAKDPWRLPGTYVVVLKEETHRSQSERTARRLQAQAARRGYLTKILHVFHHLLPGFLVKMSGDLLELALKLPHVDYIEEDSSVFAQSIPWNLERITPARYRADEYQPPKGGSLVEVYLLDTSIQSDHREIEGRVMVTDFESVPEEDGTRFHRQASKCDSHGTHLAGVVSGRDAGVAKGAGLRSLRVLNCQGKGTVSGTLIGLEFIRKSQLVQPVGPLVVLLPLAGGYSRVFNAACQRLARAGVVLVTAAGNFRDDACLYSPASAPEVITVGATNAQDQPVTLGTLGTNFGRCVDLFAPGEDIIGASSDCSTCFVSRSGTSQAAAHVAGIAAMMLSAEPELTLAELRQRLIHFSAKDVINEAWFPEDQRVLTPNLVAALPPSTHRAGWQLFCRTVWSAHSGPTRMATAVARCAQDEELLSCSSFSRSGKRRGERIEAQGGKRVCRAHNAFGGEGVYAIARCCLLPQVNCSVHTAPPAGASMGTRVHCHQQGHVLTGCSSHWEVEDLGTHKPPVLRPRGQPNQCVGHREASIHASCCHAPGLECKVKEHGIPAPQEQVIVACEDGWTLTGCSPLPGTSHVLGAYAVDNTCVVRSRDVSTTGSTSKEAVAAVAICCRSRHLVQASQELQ
Protocol: as §1

[4] = target: T1, recombinant human PCSK9 protein, …; assay: ELISA, biotin-hPCSK9-His on streptavidin plate; antibody 0.000067 nM
Protocol: as §1

[5] = target: T1, recombinant human PCSK9 protein, …; assay: blocking ELISA, biotin-hPCSK9-His on coated LDLR ECD-His; antibody 1.6 nM
Protocol: (§2) Purified LDLR^ECD-His was diluted with PBS to a final concentration of 1.0 ug/ml, and 100 uL of diluted LDLR^ECD-His were added to each well of 96-well plate that was then sealed with plastic film and incubated at 4° C. overnight. The plate was washed twice with wash buffer [PBS+0.01% (v/v) Tween 20] and incubated with blocking buffer [PBS+0.01% (v/v) BSA+1% Tween20 (w/w)] at room temperature for 2 hours. […] The plate was washed three times with wash buffer [0.01% (v/v) Tween 20]. 100 uL HRP-conjugated streptavidin (Sigma) were then added to each well and incubated at 37° C. for 1 hour. The plate was then washed three times with wash buffer, and 100 uL TMB substrate were added to each well. After 15 minutes of incubation at room temperature, the reaction was stopped by adding 50 uL stop solution (0.1N HCl).

[6] = target: T2, recombinant cyno monkey PCSK9 protein; assay: ELISA, biotin-cyno PCSK9 on streptavidin plate; antibody 0 nM (blank)
Protocol: as §1

[7] = target: T1, recombinant human PCSK9 protein, …; assay: ELISA, biotin-hPCSK9-His on streptavidin plate; antibody 66.67 nM
Protocol: as §1

[8] = target: T2, recombinant cyno monkey PCSK9 protein; assay: ELISA, biotin-cyno PCSK9 on streptavidin plate; antibody 0.00067 nM
Protocol: as §1

[9] = target: T2, recombinant cyno monkey PCSK9 protein; assay: ELISA, biotin-cyno PCSK9 on streptavidin plate; antibody 0.067 nM
Protocol: as §1

[10] = target: T1, recombinant human PCSK9 protein, …; assay: ELISA, biotin-hPCSK9-His on streptavidin plate; antibody 0.67 nM
Protocol: as §1

[11] = target: T2, recombinant cyno monkey PCSK9 protein; assay: ELISA, biotin-cyno PCSK9 on streptavidin plate; antibody 6.67 nM
Protocol: as §1

[12] = target: T1, recombinant human PCSK9 protein, …; assay: blocking ELISA, biotin-hPCSK9-His on coated LDLR ECD-His; antibody 8 nM
Protocol: as §2

[13] = target: T1, recombinant human PCSK9 protein, …; assay: blocking ELISA, biotin-hPCSK9-His on coated LDLR ECD-His; antibody 0.01 nM
Protocol: as §2

[14] = target: T2, recombinant cyno monkey PCSK9 protein; assay: ELISA, biotin-cyno PCSK9 on streptavidin plate; antibody 0.000067 nM
Protocol: as §1

[15] = target: T1, recombinant human PCSK9 protein, …; assay: ELISA, biotin-hPCSK9-His on streptavidin plate; antibody 0.0067 nM
Protocol: as §1

[16] = target: T1, recombinant human PCSK9 protein, …; assay: ELISA, biotin-hPCSK9-His on streptavidin plate; antibody 0.00067 nM
Protocol: as §1

[17] = target: T1, recombinant human PCSK9 protein, …; assay: blocking ELISA, biotin-hPCSK9-His on coated LDLR ECD-His; antibody 0.06 nM
Protocol: as §2

[18] = target: T2, recombinant cyno monkey PCSK9 protein; assay: ELISA, biotin-cyno PCSK9 on streptavidin plate; antibody 0.0067 nM
Protocol: as §1

[19] = target: T1, recombinant human PCSK9 protein, …; assay: blocking ELISA, biotin-hPCSK9-His on coated LDLR ECD-His; antibody 200 nM
Protocol: as §2

[20] = target: T1, recombinant human PCSK9 protein, …; assay: blocking ELISA, biotin-hPCSK9-His on coated LDLR ECD-His; antibody 0.32 nM
Protocol: as §2

[21] = target: T1, recombinant human PCSK9 protein, …; assay: ELISA, biotin-hPCSK9-His on streptavidin plate; antibody 0 nM (blank)
Protocol: as §1

[22] = target: T1, recombinant human PCSK9 protein, …; assay: blocking ELISA, biotin-hPCSK9-His on coated LDLR ECD-His; antibody 40 nM
Protocol: as §2

[23] = target: T2, recombinant cyno monkey PCSK9 protein; assay: ELISA, biotin-cyno PCSK9 on streptavidin plate; antibody 66.67 nM
Protocol: as §1

| Binder | OD450 nm [1] [OD450 nm] | OD450 nm [3] [OD450 nm] | OD450 nm [4] [OD450 nm] | OD450 nm (PCSK9 bound to LDLR) [5] [OD450 nm] | OD450 nm [6] [OD450 nm] | OD450 nm [7] [OD450 nm] | OD450 nm [8] [OD450 nm] | OD450 nm [9] [OD450 nm] | OD450 nm [10] [OD450 nm] | OD450 nm [11] [OD450 nm] | OD450 nm (PCSK9 bound to LDLR) [12] [OD450 nm] | OD450 nm (PCSK9 bound to LDLR) [13] [OD450 nm] | OD450 nm [14] [OD450 nm] | OD450 nm [15] [OD450 nm] | OD450 nm [16] [OD450 nm] | OD450 nm (PCSK9 bound to LDLR) [17] [OD450 nm] | OD450 nm [18] [OD450 nm] | OD450 nm (PCSK9 bound to LDLR) [19] [OD450 nm] | OD450 nm (PCSK9 bound to LDLR) [20] [OD450 nm] | OD450 nm [21] [OD450 nm] | other results |
| --- | --- | --- | --- | --- | --- | --- | --- | --- | --- | --- | --- | --- | --- | --- | --- | --- | --- | --- | --- | --- | --- |
| 76A1B11, chimeric anti-PCSK9 mAb purified from hybridoma (antibody, V domains shown, From Harbour H2L2 mice: human variable regions, rat constant regions) VH: QVQLVESGGGVVQPGRSLRLSCAATGFTFSIYGMHWVRQAPGKGLEWVAVIWYDGSNKYYADSVKGRFIISRDNSKNTLYLQMNSLRVEDTAVYYCVSDYFGSGNSYYYYGMDVWGQGTTVTVSS VL: DIQMTQSPSSLSASVGDRVTITCRASQVISNYLAWYQQKPGKVPKLLIYTASTLQSGVPSRFSGSGSGADFTLTISSLQPEDVATYYCQKYNSAPYTFGQGTKLEIK | 2.85 | 2.5 | 0.2 | 0.96 | 0.19 | 2.85 | 0.23 | 0.81 | 2.66 | 2.82 | 0.7 | 1.29 | 0.21 | 0.27 | 0.21 | 1.18 | 0.26 | 0.55 | 1.19 | 0.18 | OD450 nm [2]: 0.86 OD450 nm; OD450 nm (PCSK9 bound to LDLR) [22]: 0.59 OD450 nm; OD450 nm [23]: 2.88 OD450 nm |
| 74C10A8, chimeric anti-PCSK9 mAb purified from hybridoma (antibody, V domains shown, From Harbour H2L2 mice: human variable regions, rat constant regions) VH: QVQLQESGPGLVKPSETLSLTCSVSGGSINTYYWSWIRQPPGKGLEWIGYIYYSGSTNYNPSLKSRVTISVDTSKNQFSLKLTSVTAADTAVYYCARERFTMVRGVMMDYYYYGMDVWGQGTTVTVSS VL: DIQLTQSPSFLSASVGDRVTITCRASQGISSYLAWYQQKPGKAPKLLIYAASTLQSGVPSRFSGSGSGTEFTLTISSLQPEDFATYYCQQLNSYPRTFGQGTKVEIK | 2.99 | 2.53 | 0.19 | 0.97 | 0.21 | 2.98 | 0.34 | 0.76 | 2.89 | 2.86 | 0.78 | 1.34 | 0.18 | 0.3 | 0.17 | 1.3 | 0.27 | 0.55 | 1.2 | 0.22 | OD450 nm (PCSK9 bound to LDLR) [22]: 0.68 OD450 nm; OD450 nm [23]: 2.89 OD450 nm |
| 139G1C5, chimeric anti-PCSK9 mAb purified from hybridoma (antibody, V domains shown, From Harbour H2L2 mice: human variable regions, rat constant regions) VH: QVQLQESGPGLVKPSGTLSLTCAVSGGSISRNNWWSWVRQPPGKGLEWIGEIYHSGSTNYNPSLKSRVTISVDKSKNQFSLKLSSVTAADTAVYYCARDLLGIGLDYWGQGTLVTVSS VL: EFVLTQSPATLSLSPGERAILSCRASQSFSSYIAWYQQKPGQAPRLLIYDASNRATGIPARFSGSGSGTDFTLTISSLEPEDFAVYYCQQHSNWMYTFGQGTKLEIK | 2.94 | 2.67 | 0.19 | 0.89 | 0.2 | 2.93 | 0.26 | 1 | 2.87 | 2.88 | 0.61 | 1.06 | 0.23 | 0.36 | 0.21 | 1.13 | 0.27 | 0.63 | 1.11 | 0.22 | OD450 nm [2]: 1.55 OD450 nm; OD450 nm (PCSK9 bound to LDLR) [22]: 0.67 OD450 nm; OD450 nm [23]: 2.9 OD450 nm |
